For orientation: Kd means a measure of binding affinity in units of concentration. Read a high Kd as weaker binding. As usually defined, the stoichiometry N is a count of units in the complex or per binding partner.

First the molecules themselves.
B1: wild-type human clusterin (WT Clu) (natural protein)
chain 1: DQTVSDNELQEMSNQGSKYVNKEIQNAVNGVKQIKTLIEKTNEERKTLLSNLEEAKKKKEDALNETRESETKLKELPGVCNETMMALWEECKPCLKQTCMKFYARVCRSGSGLVGRQLEEFLNQSSPFYFWMNGDRIDSLLENDRQQTHMLDVMQDHFSRASSIIDELFQDRFFTREPQDTYHYLPFSLPHRRPHFFFPKSRIVR
chain 2: SLMPFSPYEPLNFHAMFQPFLEMIHEAQQAMDIHFHSPAFQHPPTEFIREGDDDRTVCREIRHNSTGCLRMKDQCDKCREILSVDCSTNNPSQAKLRRELDESLQVAERLTRKYNELLKSYQWKMLNTSSLLEQLNEQFNWVSRLANLTQGEDQYYLRVTTVASHTSDSDVPSGVTEVVVKLFDSDPITVTVPVEVSRKNPKFMETVAEKALQEYRKKHREE
modifications: N-glycans (six in the whole protein); five disulfide bonds to the α-chain | N-glycans (six in the whole protein); five disulfide bonds to the β-chain
notes: clusterin β-chain, human, residues 23–227 of the precursor; clusterin α-chain, human, residues 228–449 of the precursor; Almost completely processed by furin into β- and α-chain, which stay disulfide-linked; In the flotation assay it stood in DMPC nanodiscs (Clu–DMPC); also called apolipoprotein J; ApoJ

Data set [1] concerns the target VLDLR(28–797)Δ(751–779)-C-tag (VLDLR ectodomain) (human, UniProt P98155-2 28-797, Δ(751–779)). Nature of the data set: ELISA; plate coated with 10 µg/ml VLDLR-ed; Clu or RAP in TBS-C pH 7.4, 2 mM CaCl2, 2% BSA, 0.05% Tween-20, 1 h at room temperature; background binding to BSA subtracted; one-site specific binding fit. To be noted: both partners purified. On the technique in general: In an ELISA, binding on a coated surface is turned into a signal by an enzyme label.

Data set [2] concerns the molecule itself. Nature of the data set: SEC; 10 μM Clu in 20 mM MES-NaOH pH 6.5, HEPES-NaOH pH 7.5 or Tris-HCl pH 8.5, 100 mM NaCl, 1 mM EDTA, overnight or longer on ice; Superdex-200 Increase 3.2/300 at room temperature; monomers and dimers. (In general: Size exclusion chromatography separates by hydrodynamic size, large species first.)
For data set [3], the target named is VLDLR(28–797)Δ(751–779)-C-tag (VLDLR ectodomain) (human, UniProt P98155-2 28-797, Δ(751–779), Secreted from HEK293E, glycosylated, Ca2+-bound LDLR repeats, disulfides; C-terminal C-tag left out. Deletion 751-779 taken as printed, in the numbering of the long isoform). Nature of the data set: ELISA; plate coated with 10 µg/ml VLDLR-ed; Clu or RAP in TBS-C pH 7.4, 2 mM CaCl2, 2% BSA, 0.05% Tween-20, 1 h at room temperature; background binding to BSA subtracted; one-site specific binding fit. To be noted: both partners purified.

For data set [4], the target named is B1. Nature of the data set: SEC; D-Rho diluted into PBS to 0.5 μM with 1.5 μM WT Clu, 30 min at 25 °C; soluble fraction on Superose-6, fractions by SDS-PAGE and immunoblotting against Rho and Clu. To be noted: both partners purified.

Molecule B1 came in with an equilibrium dissociation constant (Kd) in data set [1] of roughly 80 nM. Moreover, the “stoichiometry N” value in data set [2] amounted to 2.

B2: receptor-associated protein (RAP) (natural protein, UniProt P30533 36-357, looked up)
chain: SREKNQPKPSPKRESGEEFRMEKLNQLWEKAQRLHLPPVRLAELHADLKIQERDELAWKKLKLDGLDEDGEKEARLIRNLNVILAKYGLDGKKDARQVTSNSLSGTQEDGLDDPRLEKLWHKAKTSGKFSGEELDKLWREFLHHKEKVHEYNVLLETLSRTEEIHENVISPSDLSDIKGSVLHSRHTELKEKLRSINQGLDRLRRVSHQGYSTEAEFEEPRVIDLWDLAQSANLTDKELEAFREELKHFEAKIEKHNHYQKQLEIAHEKLRHAESVGDGERVSRSREKHALLEGRTKELGYTVKKHLQDLSGRISRARHNEL
notes: LRPAP1 from plasmid pQTEV-LRPAP1; the signal peptide (amino acids 1–35) was removed; Purification is told in the Supplementary Information; also called LRPAP1; low density lipoprotein receptor-related protein-associated protein 1
B2 came in with a Kd in data set [3] of roughly 1.2 nM.

B3: denatured bovine rhodanese (D-Rho) (enzyme, UniProt P00586 1-297, looked up)
chain: MVHQVLYRALVSTKWLAESVRAGKVGPGLRVLDASWYSPGTREARKEYLERHVPGASFFDIEECRDKASPYEVMLPSEAGFADYVGSLGISNDTHVVVYDGDDLGSFYAPRVWWMFRVFGHRTVSVLNGGFRNWLKEGHPVTSEPSRPEPAIFKATLNRSLLKTYEQVLENLESKRFQLVDSRAQGRYLGTQPEPDAVGLDSGHIRGSVNMPFMNFLTEDGFEKSPEELRAMFEAKKVDLTKPLIATCRKGVTACHIALAAYLCGKPDVAIYDGSWFEWFHRAPPETWVSQGKGGKA
notes: rhodanese (33 kDa), bovine; Denatured in 6 M guanidinium–HCl and 5 mM DTT and diluted 120-fold into buffer; non-native, forms oligomers and aggregates
Turning to B3, the binding result in data set [4] is given as “binds”.

Source of the values: paper PMC12527946, “Structural analyses define the molecular basis of clusterin chaperone function” (Nature Structural & Molecular Biology, 2025).
